For 47 sequences, protease stability score results are on record in the NTF2 design screens of Basanta et al. (2020).

This series is described as follows: protease stability score; higher = more stable; yeast display proteolysis, trypsin and chymotrypsin.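 Note: relative to predicted unfolded state with 0 unfolded-like and 1 meaning tenfold more protease.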
As for “SEEEEWAEIASKLEIEIYLTGDFERFRKFADPHVRYEIHIDGREFKIHGMELYSEWLLRFKGVRLFIKDERISVIGDKLYIHINGDLEFNGRRQDVHFEFLTLKVDGRWIVKKIRNESR”, the protease stability score was 1.59.

“SEEEEWAHELMRLLIEFNETGDEHELHNLIDPNVRIVIGEYTIIGREIAIEWTRQARIKRVHIEDYRFQGDKLHVDSRSNGKYGDKEDTLKVEIIVEKINGKWVVREVRVK” returned a protease stability score of 2.06.

“SEEEEWIIKVLRELTKSMETGDEDHLHHLADPDVRLHVGDKEFHGREDFKKWYTHLRIKHFELTDMRIQGEKAHLKVRVHMRYGDKEDRKEVDFTMIKIDGRWYLHSVHVR” yielded a protease stability score of 2.09.

In the case of “SEEEEWIRRALEILIEIIRTGDEDSSKRYVDPHVRLHIGDKEFHGREDFTRMVHELFNRVDHIEIRIHDMRIINGQAHVDTELILRQGDKEIVLRTEIVLLKFDGKWIMESVHIR”, the protease stability score came to 1.29.

In turn, “SEEEEWLRRYRHLFKHLWTTGDWRTLEELLDPRTRIDIDVGDKRYHIHGREDAVEFFHRERRELGIDHIEDKRTRVIDGQVEIHGKIHVDGRDETRTIHVIVVNGRMKYLYFHVE” had a protease stability score of 0.5.

The sequence “SEEEEWMEEFRERWERNFMTGDEDAMRELADPNVRIDIGEWDVHGREHLAELLKRHLDTLGINHVEFDHSTVIDGVIHIHMTINVNGKRIYSEVRLLVVNGKLKHSHYDIK” gave a protease stability score of 1.01.

On to “SEEEEYALKVLEDILKAFLTGDWKITEHLLDPDARLEINGRNFVGRELIRKYLEEYLRRIDVVRIKIRHVEVQGDKNHLEGELIEIQGDKHKSMDMKIHLVIINGRVRREHVRVE”, for which the protease stability score was determined as 2.15.

The sequence “SEEEEYAREFLERHLHSLKTGDWREEHKQADPEVRLHIGDKEFHGREIFVKIQREILEQADHLRIHIRRVHVQGDFLHIDGELRIRINGREHYIDRKVIVWKFNGRWHLHEVSIE” had a protease stability score of 1.39.

“SEEEEYARHFMTLVMSNLHTGNFEESRQNADPRTRVVIGDKRLHGWDEFAREYHEELRDRGVEIHFRVHHIEEFDGRLLTDFSIEIRYGDKVDHIRIRLYVTKINGRWFIKELEFR” had a protease stability score of 1.1.

As to “SEEEEYARKAAEEFIKHVETGNEDKIILLFDPNALYVYNGVELIGWHVFKEHTHRFKNIRRHITHVEIRVINGVVHVHIDGRFHVNGVDVEQEINIVFRKINGRWKIESNEERFR”, the protease stability score was 1.57.

Take “SEEEEYFRFVAEEFLKAWSTGNEEILERLFDPRVRLSFNGKQFHGRERVHDKLMQLLEHLGINHTRIDDREFRIIGDKAEIRIDLILHVGDKTLRVEVILIITKVNGVWMMKEVELRIH”: the protease stability score was 1.51.

For the sequence “SEEEEYLRRVAELILRLLITGDEDEHHNLADPNTLVLIDINGVHIRDHGWWALRRWWEELERRVPGMRVRPRNMTVQGEKVILHMETVIGDKRLRLDFYHLVIDGKITSVEIKVDES”, the protease stability score was found to be 2.4.

For the sequence “SEEEEYVTKYTRHWLHSHVTGDEDYLRRYADPHVRVDINGREVHGRDEAAHFIERVLRHIREEHLDDRDFTVINGKSILHGELKISINGQEWRVNFDIIIVVVNGRFKREEVRVK”, the protease stability score was determined as 0.858.

In the case of “SEEEFFTEMALRIYIELFETGDEHLIERLADPNVIIDFNGREFIGREYFSRIFHFLRRHWRMRDVTLKDWRVFDGRLHMEVQLYGKVNGQETQRDTHLVSTKINGRWRIHSDKWD”, the protease stability score was determined as 1.25.

Sequence “SEEEHDAHIALKIWLDNLFTGDEEKLKEMMDPNVRMDFDGRHIHGREAIEMLLRRVDHWHHIEVRLEHLRIIGDKVILHIRQVEHIQIGDKHDRVHSNITLVFLKFDGKWFIREIRIK” had a protease stability score of 2.78.

In turn, “SEEEHDTRNALKIIIRTLITGNEDERRKLLDPHVRLEFEGWHEHGRDAAHLLSFWYRERVDVLRDSKVEHVELQGDKIRMDIILISEYNGVHTSTHVHIVVEKFNGRWHMRSIFFL” came in with a protease stability score of 1.16.

Consider “SEEEHDTRRAIEIFLRIIMTGNEEDFERLFDPDARSEWNGVELHGREIITHIWLEIFDRFPNIKIEVRVERYRIQGEKVDIDMELIFRVGDKEDSRKTRMHVLKVDGKWTVKLFKIK”, for which the protease stability score came out at 2.33.

In turn, “SEEEHDVEFVRRLQEEVWHTGDEDKLEELLDPDARAHVNGVTYHGREFVHFFYKRVDHVHHYQIEETRVVGDKLHLISRTDLVINGQRVKTELRWNITKVNGKWRVTEVRID” came in with a protease stability score of 1.06.

As for “SEEEHDVERSIKHFLHILETGDWKELYEQMDPNVRIEIDGKFIIGREASVHHFNRYDHHRSRIEIKHVDVYGDKLNVHGHIHEHFSVNGKDITRSMRVILHARKVDGQWIHTEVRYK”, the protease stability score was 1.32.

In turn, “SEEEHDWRRALKIFLESLTTGDPKSITELVDPNARSDINGVDLHGREEWSKEMNRIKNLTIHDFEIEHISIYDGKAEINGHLDFEFDGVRTKIEVHLIFEKVDGKWVIQSRIVK” registered a protease stability score of 0.895.

“SEEEHEADLLHKELWESWHTGDEKHLTNLMDPNVRLQIGDKHYVGRENALNVLHFIRRKLGIKYFELESVTHHEINGRIHTIFDGSILINGKTVKDKIEVDTEKYNGQWRITQINIDFR”: the protease stability score came to 2.24.

Turning to “SEEEHEAIKHAYEFLEWLRTGDEEKIEKLLDPNVRLIIGDKTAHGREEFIRVMKEELERMGVNVFRLRDTRVNIFDGRVEIRFDTDLHFNGKTVHVELILRVHKVDGRWVLESVQVNIH”, the protease stability score came to 1.48.

For “SEEEHEEREAIEQLTRSLTTGDEHMMTNNMDPNVRIHIDGRDLVGREEAIKWLQEIHKKYKNIKYEIKRIDSFNGRLIVDGRVEYNGRRVDMHLIALKFDGRWLIEEVRVN”, the protease stability score came to 2.26.

Take “SEEEHEFKKFLEHFLHRLTTGDEDELRRLADPHVRVLINGRHIVGMDEVTKVLRHLREIIEELRIDDIDLQGDKIRMDTRTRIRFIIGDWETKIETRTRIFIWKFNGRWIMEHIERD”: the protease stability score came to 0.811.

Sequence “SEEEHEIRLAFKQVIETLITGDEHIMTQLLDPNVKIRQGDKILHGREEAHKWADEWLRRVDHFEDMKIHRHSVFNGRLELDSEQVVIQGDKTISIRSEIILTKINGRWQIEELRFD” showed a protease stability score of 1.43.

Take “SEEEHEIRRAVEHWYRSLHTGDEEESIDLVDPHTITIVNGREVHGRHLMYEIMRKFKNAKIEFEITHHEVVNGRADVNMRLTVHIGDKTYETIIHLHTEKVNGRWTVRHWEVK”: the protease stability score amounted to 1.46.

In turn, “SEEEHELDHIAKEFLRVYLTGDEDELRKLMDPNARVDINGREMIGMELILKDLRDRLEHLGIKHSHITIREVQNFDGQIHIRGHIRIEIGNKRLEFDSRIIMHVIDGRLRSFHVIFI” had a protease stability score of 1.92.

On to “SEEEHELKHWMKLFKHMIETGDWDSLVHYLDPHTRMHVGEFHHHGRHLMLKAFHDFLREMGAKHSDHKDSEITIQGDKVELTLDTRSQVGDKEFNVRIININRKVNGRWIIHSIIIEVE”, for which the protease stability score was 1.09.

Sequence “SEEEHEMERHEREFRDVAETGDERDWTNLADPNVRFEDEDEVLVGREDWHEYVRRVDHFHVRRLDYEHFSVIDGRIDIEGNMDIELNFDGQSHRMRVHVRIITTKINGVWLFESVHIQ” displayed a protease stability score of 1.75.

For “SEEEHEQENWARLMLHLFLTGDEEILLELFDPNVRSDVDGRKFHGRDEVSHAIRWILEHFGFKHSHVRHFEIYNGRVHSEVEINVDGVRLTLHIHLNIYNGRLKDSEFRLK”, the protease stability score was 0.967.

In turn, “SEEEHFAKELHKLFLEWWKTGDEEHLLEFADPDARSEIGDKRHHGREEVSRELLEFRRRIPGVQIRHQHVSVHLIDGKLTTHLHFRVNFNGVEFHETIIYYNDKYNGKWHLKSIIVTIE” gave a protease stability score of 0.954.

In turn, “SEEEHHAEEFVKIFTMTNLTGDFTTLEKLADPNVQIDVGDKHFHGREEMLKLIQDERREFGFKHLHLEIDRIETQGNFLDVHITVIIRVNGVEMRHKRRLTILKIDGQWHIKSVEVD” yielded a protease stability score of 1.27.

“SEEEHHAKKIAEDFLRWFITGDEDVLSHYADPDVRSRIGDKHHHGREELRRVMERLVRELRIKEIRIERYEVQGEKAILDSRVRGDVNGVEVEVRQIVIVVVIDGRLKSMELRLG”: the protease stability score turned out to be 0.516.

Consider “SEEEHHARYMTQLFLHALETGDWHELRRMADPNMRLRVRVGDKHWHYHGWEHLHELLESFLKRVDHVEFIERSIHVQGEKSRFRGDVREHVGDKEHTHHIILILDIVNGKIHRIIIINE”, for which the protease stability score came out at 1.37.

On to “SEEEHHDRLMTDFFIEIMRTGDEKEFIDLFDPHDRTHIDGVDAHGREIAVELLHLFLRKLGFDHIRVTDVHVYNGKVELHMRSDQGDKHVEVQIHSVVYNGKLQHLHVKIRTL”, for which the protease stability score came to 1.63.

Sequence “SEEEHHDRMVSHLWIKLWSTGDEDRIRELLDPNAKFELEQGDKEVHDHGRESIAKWLEIMFRHLGVKHFRLEHVHVFNGRIEVIMRLDVGDKHITIILRTQVIDGRIKSFVIETRHK” had a protease stability score of 1.17.

The sequence “SEEEHHFERWMRVFLHSMRTGDPSSFEELLDPNTRFIYGDKERHGREEANKWAHHLRITHMEDTDFDVYDGVLTIDIRLDFVVNGRRHEVKTHLLVVKIDGRWLINEVEIK” returned a protease stability score of 0.514.

In turn, “SEEEHHVVRMMELLIDLLMTGDEEVFDSLVDPDVKSNINGVHSVGMESINEIFRRYVDFFKNVKVDVHLRDREAQGDKHITYGVRIERFDGKQFTIDTRLELKVVNGRIKDVKVDIK” yielded a protease stability score of 1.46.

As to “SEEEHISERAMELLSESIRTGNEHLISKLADPHTRMLYGDKELHGRSRWSEWASRVKNMRFETHEVRVVGDKIRSDVRSNFDGRLHIEHLYILKIDGRWVLDKIEIE”, the protease stability score turned out to be 0.246.

In turn, “SEEEHITKLALDMWFTSLLTGDEHTFRHLLDPNVRVHIDGREYHGREHWRDLLTYLLTHLGVDHMEFRTRDQDVVGDKITLVTEIIIHVGDKNLSFESELIVAKVDGRWRIRSEDYR” displayed a protease stability score of 0.645.

In the case of “SEEEHIVKEAVRLWYEAVHTGDPHTLNEFLDPHMRIEIGDKEKHGRHELKKLTEHIRIERLEFTLTHMKIVGNKAHVYGHLRFEGDWDGQRIHTEVETRLHIIKYDGKWMTEEVHIR”, the protease stability score came out at 1.97.

Consider “SEEEHKIRKLLEDLANFIRTGDEHRINELLDPNVMIDINGQKFHGRESLETVYHEWLKRVDHIEDLRIDDISKQGEFLIMHANMTLRQGDKHHRENVHIIILKVDGRWIMTSILFR”, for which the protease stability score came out at 2.2.

Consider “SEEEHLAREMTELHKQAELTGDEHFLNELMDPHVRIDINGVPAIGWEESNEVLKRIWEEMRIDDIRPTHVELQGNKIHVHVQSHITIDGQRRIFHERIVIVVFNGRMREVKFDIH”, for which the protease stability score turned out to be 1.19.

Consider “SEEEHLFEFVIRVIYHAMKTGDWEFWERYLDPHVRYQQGDKEHHGRKMTLHYLERLSDELGVTRIEVDLKHIHVYNGRVEIIGELNINGRRTEVRITSEKINGRWTVKELHIV”, for which the protease stability score was determined as 1.55.

“SEEEHLLKFFLDVLMDLHSTGDERKLYELFDPNVRIEYDGKETHGRERAREQFQEMRVRVEHVHIKDLTLQGDKVIIDTKVDMTIHIDGKTIREDRKLQVDFDKVDGRWTVHELIFR” displayed a protease stability score of 1.13.

In turn, “SEEEHLLREILERIIHIYSTGDEQILKHLMDPHVKITVEVNGRRIIFHGMEQYIQWYRDLGFDHSKVKLRDHRIIGDKAHAVTELEIHFDGKRREEETREVIVVIDGRLTTWHTSVN” returned a protease stability score of 0.898.

“SEEEHLMRELLEVFLRNMLTGDWDKTAKLADPDTRFRAHVGDFKVERHGMEQFIKWLKDEREQWRIRRIHIDRIELVDGVIRVEGTIDVEYDGVREVERSELILVIIDGRIHEVEVHIR”: the protease stability score was found to be 1.44.
